Source: PMC8423243
Where two headings read alike, the source gives them in different places.

| Substance | other (N-glycosylation at N241) | other (N-glycosylation at N289) | other (N-glycosylation at N611) |
| --- | --- | --- | --- |
| BG505 Env S241N variant (SOSIP and virus): S241N (PNGS knock-in; direction given for knock-in relative to parental BG505) | abolishes |  |  |
| BG505 Env S241N variant (SOSIP and virus): S241N + P291T (double PNGS knock-in; direction given for knock-in relative to parental BG505) | abolishes |  |  |
| BG505 Env P291T (virus) / P291S (SOSIP) variant: P291T (PNGS knock-in at N289; direction given for knock-in relative to parental BG505) |  | abolishes |  |
| BG505 Env (BG505 SOSIP trimer and BG505 T332N virus): N611A (virus) |  |  | increases |
| BG505 Env P291T (virus) / P291S (SOSIP) variant: P291T and S241N + P291T (PNGS knock-ins; direction given for knock-in relative to parental BG505) |  | decreases |  |
| BG505 Env (BG505 SOSIP trimer and BG505 T332N virus): deletion of the N611 PNGS (N611A virus) |  |  | no change |
